Test results as given in paper doi:10.1101/2020.04.25.060004.

Biological target: insulin (human, UniProt P01308;P01308 25-54;90-110)
Test: bead-based flow cytometry

insulin, sequence (P01308 25-54, chain 1 of 2): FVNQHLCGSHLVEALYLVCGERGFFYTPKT
insulin, sequence (P01308 90-110, chain 2 of 2): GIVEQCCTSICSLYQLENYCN

B1: IGA3 bt (ssDNA)
DNA: GGTGGTGGGGGGGGTTGGTAGGGTGTCTTC
Kd: 12.7 ± 1.1 µM
